Target: the molecule itself
Assay: AUC; sedimentation equilibrium at 20 °C; 2.5 μM enzyme (tetramer) with 2.5 μM HEX-21 DNA duplex; AUC buffer (10 mM Tris-HCl, 50 mM NaCl, 10 mM CaCl2, 1 mM DTT, pH 7.9); absorbance of the HEX label at 539 nm; 10,000, 15,000 and 25,000 rpm, global fit to a single species; oligomeric state of the protein bound to DNA

B1: SfiI restriction endonuclease, wild type (enzyme)
chain: MHQDYRELSLDELESVEKQTLRTIVQALQQYSKEAKSIFETTAADSSGEVIVLAEDITQYALEVAETYPINRRFAGFIDYKRVRWLPSPHGLLPQVLLVDAKASTEKNRDTLQRSQLPMDAEFRNTSSGEVVTMEAGVIPHLMLQSANDGVLPAVTTSIFVHFYYRELKDVEGRYRELKSIYVLSLPHARLKQRYNPDPDTSFFGAGKHSPARGEVARIRVYFDRLKEACPWRLQELHYSADSEYTQPRWRDLNDAGHEVTKEFLFLER
notes: SfiI restriction endonuclease, expressed from the SfiI restriction gene on pRRS-SfiIR+; tetramer of identical subunits, Mr of the tetramer printed as 124,176; The plasmid carries the SfiI restriction gene, and the printed tetramer Mr of 124,176 fits four whole subunits; In the AUC the protein stood with the 21-bp DNA duplex HEX-21 and Ca2+; also called wt SfiI; SfiI endonuclease; source: E. coli …
stoichiometry N: 4

B2: SfiI restriction endonuclease, Y68F mutant (enzyme)
chain: MHQDYRELSLDELESVEKQTLRTIVQALQQYSKEAKSIFETTAADSSGEVIVLAEDITQYALEVAETFPINRRFAGFIDYKRVRWLPSPHGLLPQVLLVDAKASTEKNRDTLQRSQLPMDAEFRNTSSGEVVTMEAGVIPHLMLQSANDGVLPAVTTSIFVHFYYRELKDVEGRYRELKSIYVLSLPHARLKQRYNPDPDTSFFGAGKHSPARGEVARIRVYFDRLKEACPWRLQELHYSADSEYTQPRWRDLNDAGHEVTKEFLFLER
notes: SfiI restriction endonuclease with Tyr68 replaced by Phe (QuikChange mutagenesis of pRRS-SfiIR+); Same construct as m1 apart from Y68F; also called Y68F protein; source: E. coli ER2238 (transformed with pSYX33-SfiIM+ and a derivative of pRRS-SfiIR+), purified as described previously
stoichiometry N: 4
